Two molecules from PMC11931385, “Structural and functional analysis of cancer-associated missense variants in the retinoblastoma protein pocket domain” (The Journal of Biological Chemistry, 2025) can be followed below.

Holding throughout (experiment): fluorescence polarisation; 37 °C, after the 25 °C reading ramped over 7 min to 37 °C and 2 min incubation; unlabeled Rb^P against 1.5 nM TMR-E2F1^TD or 7.5 nM TMR-E7^LxCxE; 25 mM Tris pH 8.0, 200 mM NaCl, 1 mM DTT, 0.1% Tween-20; apparent Kd
What all share (settings): both partners purified

Assay [1] concerns the target T1, Rb^P I703F (human, UniProt P06400 380-788, I703F).
T1 construct: also called variant 64
T1 sequence (looked up): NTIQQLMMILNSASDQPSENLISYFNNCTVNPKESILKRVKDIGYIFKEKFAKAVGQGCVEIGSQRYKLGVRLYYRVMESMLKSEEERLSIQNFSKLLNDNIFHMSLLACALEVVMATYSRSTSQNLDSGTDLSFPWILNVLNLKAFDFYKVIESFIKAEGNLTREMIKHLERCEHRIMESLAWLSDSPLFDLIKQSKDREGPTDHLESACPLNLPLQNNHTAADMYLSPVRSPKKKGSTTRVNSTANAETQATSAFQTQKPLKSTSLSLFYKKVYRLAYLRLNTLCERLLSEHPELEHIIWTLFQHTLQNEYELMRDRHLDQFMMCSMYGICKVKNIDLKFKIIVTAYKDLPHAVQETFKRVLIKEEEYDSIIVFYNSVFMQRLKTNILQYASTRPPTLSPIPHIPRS

The target in assay [2] is T2, Rb^P R668C (human, UniProt P06400 380-788, R668C).
T2 construct: also called variant 51
T2 sequence (looked up): T1 sequence (looked up) with R289C, F324I

The target in assay [3] is T3, Rb^P T664A (human, UniProt P06400 380-788, T664A).
T3 construct: also called variant 50
T3 sequence (looked up): T1 sequence (looked up) with T285A, F324I

Assay [4] addresses T4, Rb^P R621S (human, UniProt P06400 380-788, R621S).
T4 construct: also called variant 44
T4 sequence (looked up): T1 sequence (looked up) with R242S, F324I

Assay [5] addresses T5, Rb^P R621C (human, UniProt P06400 380-788, R621C).
T5 construct: also called variant 41
T5 sequence (looked up): T1 sequence (looked up) with R242C, F324I

Where a chain is given by its changes, count along the chain named. Numbers in names are those of the source. No end group written: not given here. TMR = tetramethyl rhodamine dye

B1: TMR-E2F1^TD, peptide of the E2F1 transactivation domain (peptide)
peptide: {TMR}-GEGIRDLFDCDFGDLTPLD
notes: also called E2F^TD; source: synthetic peptide, bought: GenScript
Consider B1, for which the Kd in assay [1] turned out to be 396 nM; in assay [2], 25 nM; in assay [3] it was 24 nM; in assay [4], 38 nM; in assay [5] it was 43 nM.

B2: TMR-E7^LxCxE, LxCxE peptide of the E7 oncoprotein from HPV (peptide)
peptide: DLYCYEQLN
modifications: also: TMR label, position not given here
notes: source: synthetic peptide, bought: GenScript
On to B2, for which the Kd stood at 275 nM in assay [1]; 16 nM in assay [2]; 16 nM in assay [3]; 17 nM in assay [4]; 30 nM in assay [5].
